B1: Il11: IL11R agonist (protein, UniProt P47873 22-199, looked up)
Interleukin-11: PGPPAGSPRVSSDPRADLDSAVLLTRSLLADTRQLAAQMRDKFPADGDHSLDSLPTLAMSAGTLGSLQLPGVLTRLRVDLMSYLRHVQWLRRAGGPSLKTLEPELGALQARLERLLRRLQLLMSRLALPQAAPDQPVIPLGPPASAWGSIRAAHAILGGLHLTLDWAVRGLLLLKTRL
B2: Noggin: BMP inhibitor (protein, UniProt Q13253 28-232, looked up)
Noggin: QHYLHIRPAPSDNLPLVDLIEHPDPIFDPKEKDLNETLLRSLLGGHYDPGFMATSPPEDRPGGGGGAAGGAEDLAELDQLLRQRPSGAMPSEIKGLEFSEGLAQGKKQRLSKKLRRKLQMWLWSQTFCPVLYAWNDLGSRFWPRYVKVGSCFSKRSCSVPEGMVCKPSKSVHLTVLRWRCQRRGGQRCGWIPIQYPIISECKCSC
B3: Hb-EGF: EGFR agonist (protein, UniProt Q99075 63-148, looked up)
Heparin-binding EGF-like …: DLQEADLDLLRVTLSSKPQALATPNKEEHGKRKKKGKGLGKKRDPCLRKYKDFCIHGECKYVKELRAPSCICHPGYHGERCHGLSL
B4: Mfap5: non-canonical notch agonist (protein, UniProt Q9QZJ6 29-164, looked up)
Microfibrillar-associated …: QRGDDVPETFTDDPNLVNDPSTDDTALADITPSTDDLAGDKNATAECRDEKFACTRLYSVHRPVRQCVHQSCFTSLRRMYIINNEICSRLVCKEHEAMKDELCRQMAGLPPRRLRRSNYFRLPPCENMNLQRPDGL
B5: Nbl1: DAN family protein, NBL1 protein (Sino Biologicals, cat number 10169-H02H) (protein, UniProt P41271 17-181, looked up)
Neuroblastoma suppressor of …: AAPPPINKLALFPDKSAWCEAKNITQIVGHSGCEAKSIQNRACLGQCFSYSVPNTFPQSTESLVHCDSCMPAQSMWEIVTLECPGHEEVPRVDKLVEKILHCSCQACGKEPSHEGLSVYVQGEDGPGSQPGTHPHPHPHPHPGGQTPEPEDPPGAPHTEEEGAED
B6: FGF10: FGF growth factor (protein, UniProt O15520 38-208, looked up)
Fibroblast growth factor 10: QALGQDMVSPEATNSSSSSFSSPSSAGRHVRSYNHLQGDVRWRKLFSFTKYFLKIEKNGKVSGTKKENCPYSILEITSVEIGVVAVKAINSNYYLAMNKKGKLYGSKEFNNDCKLKERIEENGYNTYASFNWQHNGRQMYVALNGKGAPRRGQKTRRKNTSAHFLPMVVHS

Key:
Type in all cases: cell-based, human
[1] = tested on: forward differentiating hES culture; assay: Two stage protocol: Pan-CM 8 days then second stage medium with MG132, DAPT, forskolin, sodium propionate; transcript analysis; conditions: compared with MG132
Method: As a means to optimize the differentiation of insulin producing cells a two stage protocol was used in which pluripotent cultures were incubated in the presence of Pan-CM for 8 days as a means of generating pancreatic precursors cellular population. The medium these cultures were incubated in were subsequently changed to a medium designed to enhance differentiation of a pancreatic precursor towards a beta-cell terminal fate. All second stage experiments were performed in a medium composed of DMEM/F12 containing 12 mM Glucose supplemented with 1% B27, 1% Pyruvate, 1 uM Alk5 Inh II, 500 ng/ml Noggin and 0.5 uM (1,25 OH2)-Vit D3.
Among the compounds assayed for the ability to increase insulin production in a forward differentiating culture was the proteosomal inhibitor MG132 which we used in the previous example to stabilize Ngn3 protein. We also included the gamma secretase inhibitor DAPT, which was shown in the previous example to greatly increase beta-cell formation in the developing embryonic pancreatic explant study. We also included the short fatty acid salt sodium propionate, which acts as an agonist of short-chain fatty acid receptors. We also included the adenylyl cyclase activator forskolin. We also included the nuclear hormone receptor agonist 1,25 (OH)2)-Vit D3, which binds to, and activates the VDR protein. We also used intermediate concentrations of glucose, shown by others to increase formation of insulin producing cells from pluripotent derivatives. These compounds were used individually or in combination (as outlined in FIG. 37 panel A) to increase insulin-producing endocrine cell formation in a short term Pan-CM treated forward differentiating hES culture system.

[2] = tested on: hES cultures; assay: Individual defined medium components added throughout stages 2 and 3 of a directed differentiation protocol, qRT-PCR and IHC; conditions: for Pdx1 relative transcript level over hES levels / FoxA2 relative transcript level over hES levels: additive throughout stage 2 and stage 3; for Pdx1 relative transcript level over hES levels: control ~2500 fold; for FoxA2 relative transcript level over hES levels: control ~75 fold
From the text: To assay the individual protein components within the cell conditioned medium defined by the microarray analysis, the individual components were included throughout stages 2 and 3 of a directed differentiation protocol. […] Panels B-G show immunohistochemical stainings for Pdx1 and Hnf1-beta for the control reaction (panel B, D and F) and the reaction performed with the addition of Hb-EGF (panels C, E and G).
Since we have seen that the Pan-CM induced differentiation of the pluripotent culture results in an increased presence of pancreatic progenitors within forward differentiating cultures we next assayed the individual components of the cell conditioned medium as single additives throughout stage 2 and stage 3 of a directed differentiation protocol. Stage 2 and stage 3 cultures were assayed since these are the stages which normally establish pancreatic endoderm within directed differentiation protocols. An outlined schematic of the components used throughout the directed differentiation is provided in FIG. 45 panel A. Three genes were assayed throughout this series of experiments: the endodermal gene FoxA2, the early pancreatic progenitor gene Pdx1 and the endocrine progenitor gene Nkx6.1. […] The most dramatic effect noted within the genes assayed throughout this series of experiments was observed within the Pdx1 transcript levels obtained within cultures that had either Hb-EGF or FGF10 included throughout stage 2 and stage 3.
While this series of experiments have successfully established a beneficial effect for the inclusion of a FGF ligand within throughout stages 2 and 3 of a directed differentiation protocol, it should be noted many directed differentiation protocols already currently include a either FGF10 or FGF7 within either stage 2, stage 3 or both. […] This effect may have been due to the high concentration of Activin A used within these reactions 100 ng/ml. This high concentration was chosen because it is the typical concentration used in generating endoderm during stage 1 of directed differentiation protocols, however the actual concentration present within the Pan-CM was undetermined and may have been quite lower. […] This implies that the benefit due to their presence within the directed differentiation protocol may only be detectable by assaying other pancreatic markers or assaying the directed differentiation cultures at later stages, or as in them being a supportive component in a multi-factorial additive provision, yet unable to operate to induce pancreatic fates when provided alone.

[3] = tested on: pluripotent cultures; assay: Stage 4 administration of individual defined components in directed differentiation, RT-qPCR; conditions: component added at stage 4, 4 days
From the text: FIG. 46 (A-B)—Stage 4 administration of defined components. Pluripotent cultures were passaged onto matrigel and maintained in the presence of MEF-conditioned medium for three days before being subjected to a directed differentiation protocol. At the end of stage 3 the individual components of the cell conditioned medium were supplemented into the cultures. After 4 days RNA was extracted from the various cultures and subjected to RT-qPCR analysis for key markers.
We next explored if there were any beneficial effects from inclusion of the individual components of the cell conditioned medium in stage 4 cultures. The individual components were assayed in a directed differentiation protocol for their ability to up regulate markers of the pancreatic truck progenitor state. […] It was noted that both Mfap5 and Nbl1 up regulated the expression of HNF6.

[4] = tested on: Bmp4; assay: Bmp4 stimulus of pluripotent cells with Nbl1 or Noggin: phospho smad 1/5/8 Western/IHC, ID factor RNA; conditions: for ID2 and ID4, direct gene targets of Bmp4 signaling / Bmp4 induced phosphorylated smad 1/5/8: 24 hours; for ID2 and ID4, direct gene targets of Bmp4 signaling: RNA analysis; for Bmp4 induced phosphorylated smad 1/5/8: Western blot and IHC
Method: FIG. 42 (A-C)—Nbl1 inhibits BMPs. Pluripotent cells were incubated in the presence of Bmp4 alone or in combination with Nbl1 or Noggin for 24 hours. The following day cultures were assayed for downstream targets of Bmp4 signaling. […] Note the reduced expression of the phosphorylated smads for both Nbl1 and Noggin. […] In addition the down stream activation of AFP was loss in the cultures treated with Nbl1 and Noggin.
Our initial experiment testing the ability of a Pan-CM informed defined medium ability to replicate the direct induction of pancreatic fates relied on the use of Noggin as a BMP inhibitor. This was due to the fact that Nbl1 was not available at the time so a member of the same family of proteins was used. We obtained the NBL1 protein (Sino Biologicals, cat number 10169-H02H) and determined if Nbl1 operates as a Bmp signaling inhibitor. Pluripotent cultures were subjected to a Bmp4 stimulus in the presence and absence of either Noggin or Nbl1. […] This inhibitory effect was also observed by immunohistochemical analysis of the treated cultures and is shown in FIG. 42 panel B. In addition the direct gene targets of Bmp4 signaling, ID2 and ID4, were assayed and shown to be inhibited in the presence of Noggin or Nbl1 (FIG. 42 panel C) as was the downstream target of Afp (panel B).

Row | Molecule | NKX6.1 expression [3] | PDX1 expression [3] | Pdx1 relative transcript level over hES levels [2] | further results
1 | CCC(=O)[O-].[Na+] [sodium propionate] |  |  |  | effects on pancreas-specific transcript levels [1]: minor in comparison
2 | Activin A: Activin receptor agonist | positively effected | significantly up-regulated |  | effect of continued incubation on the cultures ([2]; 100 ng/ml throughout stage 2 and 3): detrimental effect on the cultures
3 | Cxcl12: CXCR4 agonist, stromal cell derived factor one |  | down-regulated | slight increase | 
4 | B1 | positively effected | significantly up-regulated | slight increase | FoxA2 relative transcript level over hES levels [2]: ~160 fold
5 | B2 |  |  |  | ID2 and ID4, direct gene targets of Bmp4 signaling [4]: inhibited; Bmp4 induced phosphorylated smad 1/5/8 [4]: failed to produce this BMP specific phosphorylation event
6 | B3 |  | down-regulated | ~8500 fold | FoxA2 relative transcript level over hES levels [2]: ~125 fold
7 | B4 | positively effected | significantly up-regulated |  | HNF6 expression [3]: up regulated
8 | B5 | positively effected |  |  | function on Bmp4 signaling [4]: functions as a Bmp4 inhibitor; ID2 and ID4, direct gene targets of Bmp4 signaling [4]: inhibited; Bmp4 induced phosphorylated smad 1/5/8 [4]: failed to produce this BMP specific phosphorylation event; HNF6 expression [3]: up regulated
9 | B6 |  |  | ~8500 fold | 
